Assay [1] deals with T1, Control-2 (C2), a laFc-containing fusion protein.
T1 construct: Negative panning and ELISA control
As to the kind of experiment: phage supernatant ELISA, coated control protein, anti-HA HRP, A450-A650. (In general: In an ELISA, binding on a coated surface is turned into a signal by an enzyme label.)

Assay [2] deals with T2, GIPR-ECD-laFc (an alpaca Fc-fused human GIPR extracellular region fragment) (human, UniProt P48546 22-138).
T2 construct: extracellular domain; not shown: alpaca Fc
T2 sequence (looked up): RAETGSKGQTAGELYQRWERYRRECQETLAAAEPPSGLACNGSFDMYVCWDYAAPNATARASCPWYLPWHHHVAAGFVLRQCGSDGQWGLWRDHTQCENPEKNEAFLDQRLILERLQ
As to the kind of experiment: phage supernatant ELISA, coated antigen, anti-HA HRP, A450-A650.

The target of assay [3] is T3, GIPR-ECD-chis (a his tag-fused human GIPR extracellular region fragment) (human, UniProt P48546 22-138, limits assumed).
T3 construct: extracellular domain; not shown: his tag
T3 sequence (looked up): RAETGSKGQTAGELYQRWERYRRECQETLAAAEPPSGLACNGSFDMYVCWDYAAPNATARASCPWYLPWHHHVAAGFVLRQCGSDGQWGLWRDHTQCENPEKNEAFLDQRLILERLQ
As to the kind of experiment: BLI, antibody on AHC sensor, GIPR-ECD-chis in solution.

Assay [4] deals with T4, human GIPR expressed on HEK293T cells (human, UniProt P48546 22-466).
T4 sequence (looked up): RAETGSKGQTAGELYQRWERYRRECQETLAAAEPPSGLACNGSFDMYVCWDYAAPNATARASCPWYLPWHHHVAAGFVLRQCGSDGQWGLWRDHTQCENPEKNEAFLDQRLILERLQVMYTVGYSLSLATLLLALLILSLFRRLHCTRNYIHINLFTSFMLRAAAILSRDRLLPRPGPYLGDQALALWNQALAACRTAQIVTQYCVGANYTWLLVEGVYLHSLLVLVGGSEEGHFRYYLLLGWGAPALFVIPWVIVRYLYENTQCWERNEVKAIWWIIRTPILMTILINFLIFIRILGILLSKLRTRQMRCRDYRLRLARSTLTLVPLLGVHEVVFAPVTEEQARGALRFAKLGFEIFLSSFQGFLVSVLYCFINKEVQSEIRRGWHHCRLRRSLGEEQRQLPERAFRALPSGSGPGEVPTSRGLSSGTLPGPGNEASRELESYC
As to the kind of experiment: cell-based or functional assay.

Assay [5] deals with T4, human GIPR expressed on HEK293T cells. As to the kind of experiment: cell binding on 293T-GIPR cells, anti-human SULFO-TAG secondary antibody, MSD read-out plotted as MFI.
Assay [6] concerns the target T5, Control-1 (C1), a muFc-containing fusion protein.
T5 construct: Negative panning and ELISA control
In words: phage supernatant ELISA, coated control protein, anti-HA HRP, A450-A650.

B1: iGI-1198 (VHH)
VHH: QVQLQESGGGLVQPGGSLRLSCVASGSGFSIVAMGWYRQTPGKQRELVAAITSGGNTNYADSVKGRFTISRDNAKNTIYLQMNSLKPEDTAVYYCNADPGVVAGPYAGMDFWGKGTQVTVSS
notes: Tested as supernatant of a helper-phage-rescued clone (pComb3XSS), detected by anti-HA tag
In the case of B1, the OD value in assay [1] came out at 0.027 OD; in assay [2], 1.95 OD.

B2: Maridebart (antibody, V domains shown)
VH: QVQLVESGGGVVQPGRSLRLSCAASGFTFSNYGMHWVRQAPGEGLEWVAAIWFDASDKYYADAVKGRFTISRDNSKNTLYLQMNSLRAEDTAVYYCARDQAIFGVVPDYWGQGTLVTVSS
VL: EIVMTQSPATLSVSPGERATLSCRASQSVSSNLAWYQQKPGQAPRLLIYGAATRATGIPARVSGSGSGTEFTLTISSLQSEDFAVYYCQQYNNWPLTFGGGTKVEIK
As a reminder, the Kd is a measure of binding affinity in units of concentration. The koff is the rate constant with which the complex falls apart. A lower koff goes with a long-lived complex. By kon is commonly meant the rate constant with which the complex forms. A higher kon goes with fast association. By EC50 is commonly meant the concentration that produces a half-maximal response. For B2, in assay [3], the Kd came to 16.3 nM, the dissociation rate constant (koff) came out at 0.00222 s⁻¹ and the kon came to 136000 M⁻¹ s⁻¹. Besides, in assay [4], the “EC50 of the inhibition rate (%) of GIP-induced cAMP expression in 293T-GIPR cells” value turned out to be 0.351 µg/mL. Moreover, in assay [5], the concentration for a half-maximal effect (EC50) was 1.18 nM.

B3: iGI-44 (VHH)
VHH: QVQLVESGGGLVQAGGSLKLSCAASGRTFSSKAMGWFRQAPGKEREFVAAINWSGDRTYHVNSIKGRFTISRDNAKNTVYLQMNSLKPEDTAVYYCTADRRDRATIPFQWHYWGQGTQVTVSS
notes: as for B1
As to B3, the OD value was 0.023 OD in assay [1], 0.018 OD in assay [6] and 2.31 OD in assay [2].

B4: iGI-51 (VHH)
VHH: QVQLVESGGKLVQAGGSLRLDCVASGRTFSYYAIGWYRQAPGKEREFVAAIRASGGSTYYADSVKGRFTASRDNAKNTGYLQMNSLKPEDTAVYFCYAATIVPITPSTHGYWGQGTQVTVSS
notes: as for B1
As to B4, the OD value came out at 0.027 OD in assay [1], 0.042 OD in assay [6] and 2.17 OD in assay [2].

B5: iGI-72 (VHH)
VHH: QVQLVESGGGLVQPGGSLRLSCAASRYTLDYYAIGWFRQAPGKEREGVSCINSKDGSTYYADSVKGRFTISKDNAKNTVYLQMNSLKPEDTAVYYCAAGYDPWSGIPPVQAMCVMGYDYWGQGTQVTVSS
notes: as for B1
Regarding B5, the figures for the OD value in assay [1], in assay [6] and in assay [2] were 0.077 OD, 0.019 OD and 2.2 OD, respectively.

B6: iGI-27 (VHH)
VHH: QVQLVESGGALVQTGGSLRLFCAASGDTICITNMNWYRQAPGKGREFVAAITRSGRTLYADYVKGRFTISRDNARNTMSLQMNSMTSEDTAVYYCNADQNQTICAAEPSAWGRGTQVTVSS
notes: as for B1
B6: the OD value in assay [1] turned out to be 0.023 OD; in assay [6], 0.018 OD; in assay [2], 2.23 OD.

B7: iGI-9 (VHH)
VHH: QVQLVESGGGLVQPGGSLRLSCETSKILFSSAYTMGWYRQAPGKQRELVATITTDYITNYVDSVKGRFTISRDNAKNTVYLQMNTLKLEDTAVYYCNARWGRDYWGQGTQVTVSS
notes: as for B1
With B7, the OD value in assay [1] came out at 0.028 OD; in assay [6] it was 0.018 OD; in assay [2], 2.21 OD.

For the origin of these results see patent publication US20260176344A1 (SUZHOU ALPHAMAB, published 2026).
